The subject of one assay is NCI-H460 tumors. The assay is described as follows: NCI-H460 lung cancer xenograft in nude mice. The note with it: L2-mIgG2a 20 mg/kg 3 times per week; DMXAA 25 mg/kg then 5 mg/kg/day for two days; tumors 100 mm^3. It counts as in vivo, mouse.
In the next assay the target is human TEM8 (CHO-TEM8) (Homo sapiens, UniProt Q9H6X2). In words: Flow cytometry staining of CHO-TEM8 cells. It counts as binding. The method, then: (§1) Trypsinized cells were rinsed in cold PBS/0.5% BSA (PBS/BSA) and labeled with anti-TEM8 Fabs (human) or full IgG (human-mouse) primary antibodies in PBS/BSA containing 10% goat serum at 4° C. Cells were rinsed with PBS/BSA and incubated with FITC-conjugated goat anti-human Fab or anti-mouse IgG secondary antibodies (Jackson Immunoresearch, West Grove, Pa.), rinsed again, and analyzed on a FACScalibur flow cytometer (Becton Dickinson, Franklin Lakes, N.J.) using CellQuest™ Software.
On the technique in general: Flow cytometry measures light scatter and fluorescence of single cells or particles in a stream.

In the next assay the target is CMG2 (CHO-CMG2) (Homo sapiens, UniProt P58335). The assay is described as follows: Flow cytometry staining of CHO-CMG2 cells. It counts as binding. The note with it: CMG2 transfectants of CHO/PR230. The method, then: as §1
The subject of assay [1] is CHO-TEM8 cells treated with lethal toxin. It counts as cell-based, Chinese Hamster.
Assay [2] deals with UACC human melanoma xenografts. The assay is described as follows: UACC melanoma xenograft in nude mice. It counts as in vivo, mouse. The note with it: dose-escalation study, 15 mg/kg 3× per week.
Another assay concerns HCT-116 tumors. The assay is described as follows: HCT-116 colon xenograft in nude mice. The note with it: treatment 3 times per week from 50 mm^3.

Sequence of human TEM8 (CHO-TEM8) (Q9H6X2 33-564): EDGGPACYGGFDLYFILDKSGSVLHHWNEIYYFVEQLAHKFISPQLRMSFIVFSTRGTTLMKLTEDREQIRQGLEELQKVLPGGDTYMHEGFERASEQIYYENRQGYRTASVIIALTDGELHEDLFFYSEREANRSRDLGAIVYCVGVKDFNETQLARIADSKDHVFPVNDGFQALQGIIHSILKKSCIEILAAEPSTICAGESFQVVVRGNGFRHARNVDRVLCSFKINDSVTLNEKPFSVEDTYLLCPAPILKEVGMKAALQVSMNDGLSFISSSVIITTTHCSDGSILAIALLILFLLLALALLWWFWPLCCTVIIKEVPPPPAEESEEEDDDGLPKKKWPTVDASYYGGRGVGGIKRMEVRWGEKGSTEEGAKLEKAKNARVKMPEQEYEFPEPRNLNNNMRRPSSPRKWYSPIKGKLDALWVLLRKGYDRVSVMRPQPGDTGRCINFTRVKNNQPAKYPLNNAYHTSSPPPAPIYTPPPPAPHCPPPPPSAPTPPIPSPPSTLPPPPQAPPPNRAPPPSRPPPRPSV
Sequence of CMG2 (CHO-CMG2) (P58335 34-489, species assumed): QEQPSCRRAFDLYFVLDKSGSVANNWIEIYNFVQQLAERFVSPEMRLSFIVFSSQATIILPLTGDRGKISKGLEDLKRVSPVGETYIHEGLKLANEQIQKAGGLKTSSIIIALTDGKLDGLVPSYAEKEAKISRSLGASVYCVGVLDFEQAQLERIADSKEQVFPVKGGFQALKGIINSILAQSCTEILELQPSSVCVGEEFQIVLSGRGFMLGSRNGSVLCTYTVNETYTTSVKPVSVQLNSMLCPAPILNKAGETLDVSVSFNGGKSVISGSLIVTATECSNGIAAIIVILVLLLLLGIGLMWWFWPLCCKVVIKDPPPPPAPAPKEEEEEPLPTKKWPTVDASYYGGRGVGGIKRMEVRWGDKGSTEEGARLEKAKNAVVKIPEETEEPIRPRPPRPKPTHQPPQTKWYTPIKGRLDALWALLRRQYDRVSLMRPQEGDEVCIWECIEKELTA

On to `Cc1ccc2c(=O)c3cccc(CC(=O)O)c3oc2c1C` [DMXAA, 5,6-dimethylxanthenone-4-acetic acid, reference compound], for which the NCI-H460 tumor growth entry in the assay with NCI-H460 tumors is given as “significantly delayed tumor growth”.

B1: L5-mIgG2a: mouse/human chimeric anti-TEM8 IgG: human L5 variable domains fused with mouse IgG2a constant domains (antibody, V domains shown)
VH: QVQLVESGGGLVQPGGSLRLSCAASGFTFNSYGLSWVRQAPGKGLEWVSNISSNGSYTYYADSVKGRFTISRDNSKNTLYLQMNSLRAEDTAVYYCARAGYGLFDVWGQGTLVTVSSVL
VL: DIELTQPPSVSVAPGQTARISCSGDKLREYYVHWYQQKPGQAPVLVIYGDNKRPSGIPERFSGSNSGNTATLTISGTQAEDEADYYCSSWAGSRSGTVFGGGTKLTVL
On to B1, for which, in the assay with human TEM8 (CHO-TEM8), the “staining of CHO-TEM8 cells” value is on record as “stained”. For the same molecule, the “reactivity with CMG2” value in the assay with CMG2 (CHO-CMG2) is reported as “failed to react with CMG2”. For the same molecule, the “EC50 of protection from lethal toxin toxicity” value in assay [1] was determined as 2.575 µg/mL. The “UACC tumor growth inhibition at 15 mg/kg” value in assay [2] is listed as “partial growth inhibition”. Also, the HCT-116 tumor growth result with HCT-116 tumors is “inhibited HCT-116 tumor growth”.

These data come from patent US9181340B2, “TEM8 antibodies, conjugates thereof, and their use” (The United States of America, as represented by the …, priority 2011, dated 2015).
